Laboratory results as given in patent publication US20030207791A1, “Materials and methods relating to the treatment of leukaemias” (priority 2000, published 2003).

T1: GST-NCoR (Mus musculus, UniProt Q60974)
T1 construct: made in house
T1 sequence (Q60974 1782-2453): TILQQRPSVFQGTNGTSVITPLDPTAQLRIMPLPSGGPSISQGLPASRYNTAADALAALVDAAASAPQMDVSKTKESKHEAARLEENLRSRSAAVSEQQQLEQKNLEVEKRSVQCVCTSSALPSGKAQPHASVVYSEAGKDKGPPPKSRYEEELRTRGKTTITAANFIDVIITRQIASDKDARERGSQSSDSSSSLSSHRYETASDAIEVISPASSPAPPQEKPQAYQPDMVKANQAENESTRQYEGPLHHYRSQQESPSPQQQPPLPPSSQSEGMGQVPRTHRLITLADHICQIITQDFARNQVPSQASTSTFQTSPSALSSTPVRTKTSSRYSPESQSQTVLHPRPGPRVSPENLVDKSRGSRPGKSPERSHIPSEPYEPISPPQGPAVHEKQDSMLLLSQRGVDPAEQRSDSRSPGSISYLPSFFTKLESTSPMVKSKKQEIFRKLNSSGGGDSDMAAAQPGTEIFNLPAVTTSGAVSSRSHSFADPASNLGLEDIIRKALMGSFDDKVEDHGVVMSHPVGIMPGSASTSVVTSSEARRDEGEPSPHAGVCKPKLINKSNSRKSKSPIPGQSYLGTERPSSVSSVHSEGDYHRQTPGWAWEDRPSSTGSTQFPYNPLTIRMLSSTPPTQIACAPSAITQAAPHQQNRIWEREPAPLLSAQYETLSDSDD

B1: p53-RAR: RAR fused C-terminally to the tetramerization domain present in p53 (protein)
chain: GEYFTLQIRGRERFEMFRELNEALELKDAQAGMASNSSSCPTPGGGHLNGYPVPPYAFFFPPMLGGLSPPGALTTLQHQLPVSGYSTPSPATIETQSSSSEEIVPSPPSPPPLPRIYKPCFVCQDKSSGYHYGVSACEGCKGFFRRSIQKNMVYTCHRDKNCIINKVTRNRCQYCRLQKCFEVGMSKESVRNDRNKKKKEVPKPECSESYTLTPEVGELIEKVRKAHQETFPALCQLGKYTTNNSSEQRVSLDIDLWDKFSELSTKCIIKTVEFAKQLPGFTTLTIADQITLLKAACLDILILRICTRYTPEQDTMTFSDGLTLNRTQMHNAGFGPLTDLVFAFANQLLPLEMDDAETGLLSAICLICGDRQDLEQPDRVDMLQEPLLEALKVYVRKRRPSRPHMFPKMLMKITDLRSISAKGAERVITLKMEIPGSMPPLIQEMLENSEGLDTLSGQPGGGGRDGGGLAPPPGSCSPSLSPSSNRSSPATHSP
B2: PML-RAR: leukaemia-associated chimeric transcription factor, fusion of PML and RAR (protein)
chain: MEPAPARSPRPQQDPARPQEPTMPPPETPSEGRQPSPSPSPTERAPASEEEFQFLRCQQCQAEAKCPKLLPCLHTLCSGCLEASGMQCPICQAPWPLGADTPALDNVFFESLQRRLSVYRQIVDAQAVCTRCKESADFWCFECEQLLCAKCFEAHQWFLKHEARPLAELRNQSVREFLDGTRKTNNIFCSNPNHRTPTLTSIYCRGCSKPLCCSCALLDSSHSELKCDISAEIQQRQEELDAMTQALQEQDSAFGAVHAQMHAAVGQLGRARAETEELIRERVRQVVAHVRAQERELLEAVDARYQRDYEEMASRLGRLDAVLQRIRTGSALVQRMKCYASDQEVLDMHGFLRQALCRLRQEEPQSLQAAVRTDGFDEFKVRLQDLSSCITQGKDAAVSKKASPEAASTPRDPIDVDLPEEAERVKAQVQALGLAEAQPMAVVQSVPGAHPVPVYAFSIKGPSYGEDVSNTTTAQKRKCSQTQCPRKVIKMESEEGKEARLARSSPEQPRPSTSKAVSPPHLDGPPSPRSPVIGSEVFLPNSNHVASGAGEAIETQSSSSEEIVPSPPSPPPLPRIYKPCFVCQDKSSGYHYGVSACEGCKGFFRRSIQKNMVYTCHRDKNCIINKVTRNRCQYCRLQKCFEVGMSKESVRNDRNKKKKEVPKPECSESYTLTPEVGELIEKVRKAHQETFPALCQLGKYTTNNSSEQRVSLDIDLWDKFSELSTKCIIKTVEFAKQLPGFTTLTIADQITLLKAACLDILILRICTRYTPEQDTMTFSDGLTLNRTQMHNAGFGPLTDLVFAFANQLLPLEMDDAETGLLSAICLICGDRQDLEQPDRVDMLQEPLLEALKVYVRKRRPSRPHMFPKMLMKITDLRSISAKGAERVITLKMEIPGSMPPLIQEMLENSEGLDTLSGQPGGGGRDGGGLAPPPGSCSPSLSPSSNRSSPATHSP

Experiments:
[1] = tested on: RARE-G5-TATA reporter (GAL4-VP16 driven transcription); test: Transcriptional repression of GAL4-VP16 activation, RARE-G5-TATA reporter, transfected HeLa cells; assay type: cell-based
Procedure: FIG. 2. Role of the coiled coil of PML in the altered transcriptional properties of PML-RAR (A): Transcriptional repression by RAR and fusion proteins. Hela cells were co-transfected with the RARE-G5-TATA reporter in the absence (C) or presence of increasing amounts (50, 100, 250, 1000 ng) of the indicated expression vectors and then harvested 48 hours after transfection. Levels of expression of RAR and fusion proteins after transfection are shown in (C). (B) RARE and NCoR dependent transcriptional repression by RAR and fusion proteins. Hela cells were co-transfected with the RARE-G5-TATA or the G5-TATA, reporters and 1 μg of control expression vector (C), RAR (R), PML-RAR (P/R) and their respective AHT derivatives, as indicated. (D) RA sensitivity of RAR and fusion proteins. Cells were co-transfected with 500 ng of the indicated expression vectors. 24 hours after transfection, RA was added at the following concentrations: 1, 10, 100 nM, 1, 10 μM, and cells were harvested after additional 24 hours.
To test this hypothesis, the inventors devised an artificial, reporter system to measure transcriptional repression by RAR and chimeric proteins. The RARE-G5-TATA reporter construct has five GAL4 response elements fused to a minimal promoter region: upstream of the GAL4 sites, a RA responsive element (RARE) allows binding of RAR (or fusion proteins). […] RAR over-expression led to decrease of GAL4-VP16 activation, with 30-40% repression observed with the maximal amount of co-transfected RAR expression vector (1 μg, FIG. 2A), while it exerted no effect on the GAL4-VP16-mediated activation of a cognate promoter lacking the RARE (FIG. 2B). A RAR construct carrying the AHT mutation, which abrogates NCoR binding (Horlein et al., 1995), was unable to prevent activation of the RARE-G5-TATA promoter by GAL4-VP16 (FIG. 2B).
Next, the inventors tested the transcriptional regulatory functions of PML-RAR (or derivatives). […] At the maximal concentration tested (1 μg), the inventors observed 80-90% repression with PML-RAR and 30-40% with RAR (FIG. 2A).
Transient transfection of HeLa, NIH 3T3, SAOS and C33A cells was performed by calcium phosphate as described (Lillie and Green, 1989; Minucci et al., 1994). p53-/- MEFs were transiently transfected by lipofection as described (Pearson et al., 2000). Light units were normalized to expression of a co-transfected β-galactosidase expression plasmid. Results are presented as the mean+standard deviations of at least three independent experiments.

[2] = biological target: T1, GST-NCoR; test: GST-NCoR pull-down assay with in vitro translated 35S labelled proteins; assay type: binding; settings: increasing amounts of GST-NCoR
Procedure: FIG. 1. Enhanced recruitment of NCoR by PML-RAR is due to the coiled coil region of PML. Increasing amounts of GST -NCoR (from 150 ng to 10 μg) coupled to agarose beads were incubated with the indicated in vitro translated, ^35-S labelled proteins. On the left, a schematic representation of the in vitro translated products, with the tripartite motif of PML highlighted (R, RING finger; B, B boxes; CC, coiled coil). The input lanes are loaded with the same amounts used in the pull-down experiments.
Recruitment of the NCoR-HDAC complex is crucial for the transforming potential of PML-RAR. At low concentrations of RA (1-100 nM), the stability of the PML-RAR-NCoR complex is higher than that of the RAR-NCoR complex (Grignani et al., 1998; He et al., 1998; Lin et al., 1998). […] Pull-down assays were performed by incubation of in vitro translated, ^35S labelled PML-RAR or RAR with GST-NCoR coupled to agarose beads.
GST-NCoR (1782-2453) or GST-NCoR (RDIII) purification and in vitro interaction experiments were performed as described, incubating the indicated amounts of GST-NCoR attached to a constant amount of glutathione-agarose beads in the presence of the appropriate ^35-S labelled, in vitro translated proteins(Gelmetti et al., 1998; Grignani et al., 1998; Zamir et al., 1996). The input lanes represent 100% of the total. Coimmunoprecipitation experiments were performed as described(Gelmetti et al., 1998), using extracts from transiently transfected COS-1 cells, or in vitro translated products.

Molecule	capacity to repress GAL4-VP16 driven transcription [1]	binding to GST-NCoR [2]	repression of GAL4-VP16 activation ([1]; maximal amount of expression vector, 1 μg)
B1	as strongly as PML-RAR	bound NCoR even at the lowest amounts of GST-NCoR tested	–
B2	–	bound specifically to the beads even at the lowest amounts of GST-NCoR tested	80-90%
